Experimental data taken from article PMC3643599.

Legend:
[1] = molecular target: His-TDP (101-261) (human, UniProt Q13148 101-261); experiment: lysine acetylation footprinting MS
[2] = molecular target: GST-TDP (101-261) (human, UniProt Q13148 101-261); experiment: CD titration
GST-TDP (101-261), sequence (Q13148 101-261): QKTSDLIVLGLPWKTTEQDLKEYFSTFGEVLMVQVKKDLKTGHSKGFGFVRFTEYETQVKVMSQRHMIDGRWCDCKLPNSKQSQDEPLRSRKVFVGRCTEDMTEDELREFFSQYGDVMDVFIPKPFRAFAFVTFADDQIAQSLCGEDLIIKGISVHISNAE

His-TDP (101-261), sequence (Q13148 101-261): as above

UGUGUGUGUGUG (ssRNA) [(UG)6]
binding result [1]: binds
binding result [2]: binds
